Test results taken from article PMC10097598, “Cryo-EM structure of the transposon-associated TnpB enzyme”.

Target: T1, TnpB (ISDra2) (Deinococcus radiodurans (ISDra2), UniProt Q7DF80 1-408)
T1 sequence: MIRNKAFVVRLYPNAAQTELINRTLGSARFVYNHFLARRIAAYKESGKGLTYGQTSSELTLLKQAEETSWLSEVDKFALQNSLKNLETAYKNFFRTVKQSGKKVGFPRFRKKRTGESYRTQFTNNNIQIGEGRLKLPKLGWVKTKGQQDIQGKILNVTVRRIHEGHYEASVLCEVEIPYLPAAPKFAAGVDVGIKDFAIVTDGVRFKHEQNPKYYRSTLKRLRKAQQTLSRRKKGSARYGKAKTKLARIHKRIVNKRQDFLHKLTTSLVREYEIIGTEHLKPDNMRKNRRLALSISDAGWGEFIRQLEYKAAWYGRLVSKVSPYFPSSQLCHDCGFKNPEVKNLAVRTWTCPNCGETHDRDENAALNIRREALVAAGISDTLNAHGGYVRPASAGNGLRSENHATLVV
Test: co-purification (urea-PAGE, northern blot); bound RNA is 5'-processed, 100-160 nt; Ternary complex: TnpB–ωRNA + target DNA, room temperature 30 min; SEC in 20 mM Tris-HCl pH 8.0, 150 mM NaCl, 2 mM MgCl2, 10 uM ZnCl2, 1 mM DTT. Copurification:
Details: protein: recombinant; tags: N-terminal MBP, removed with HRV3C; pseudoknot, stems 1-3, triple helix

B1: ωRNA full length (as co-expressed) (structured_RNA)
RNA: GAUUCAAGAAUCCCGAAGUGAAGAAUCUUGCCGUCCGUACAUGGACUUGCCCGAACUGUGGGGAAACCCAUGACCGAGACGAGAACGCUGCGCUGAACAUUCGGCGUGAAGCGUUGGUGGCUGCGGGAAUCUCAGACACCUUAAACGCUCAUGGAGGCUAUGUCAGACCUGCUUCGGCGGGCAAUGGUCUGCGAAGUGAGAAUCACGCGACUUUAGUCGUGUGAGGUUCAAGAGUCCCUUGGCGCCC
binding result: binds
